Measured values: paper PMC4414297, “An epitope tag alters phosphoglycerate dehydrogenase structure and impairs ability to support cell proliferation” (Cancer & Metabolism, 2015)

Biological target: the molecule itself
Assay: negative-stain electron microscopy; 12 ng/ul His-PHGDH or 15 ng/ul untagged PHGDH with 0.5 mM NADH, 2% uranyl acetate; reference-free alignment, class averages, particle areas compared

B1: recombinant untagged PHGDH (D-3-phosphoglycerate dehydrogenase) (enzyme, human, UniProt O43175 1-533, looked up)
chain: MAFANLRKVLISDSLDPCCRKILQDGGLQVVEKQNLSKEELIAELQDCEGLIVRSATKVTADVINAAEKLQVVGRAGTGVDNVDLEAATRKGILVMNTPNGNSLSAAELTCGMIMCLARQIPQATASMKDGKWERKKFMGTELNGKTLGILGLGRIGREVATRMQSFGMKTIGYDPIISPEVSASFGVQQLPLEEIWPLCDFITVHTPLLPSTTGLLNDNTFAQCKKGVRVVNCARGGIVDEGALLRALQSGQCAGAALDVFTEEPPRDRALVDHENVISCPHLGASTKEAQSRCGEEIAVQFVDMVKGKSLTGVVNAQALTSAFSPHTKPWIGLAEALGTLMRAWAGSPKGTIQVITQGTSLKNAGNCLSPAVIVGLLKEASKQADVNLVNAKLLVKEAGLNVTTSHSPAAPGEQGFGECLLAVALAGAPYQAVGLVQGTTPVLQGLNGAVFRPEVPLRRDLPLLLFRTQTSDPAMLPTMIGLLAEAGVRLLSYQTSLVSDGETWHVMGISSLLPSLEAWKQHVTEAFQFHF
notes: D-3-phosphoglycerate dehydrogenase (PHGDH), human, expressed from pET28a PHGDH without a tag; Oligomer size is left open (dimer, trimer, or tetramer); also called rPHGDH; source: E. coli BL21, purified (Cibacron Blue F3GA, MonoQ, Sephacryl S-200)
B1: binds.
